Laboratory results taken from the nanobody polyreactivity screen of Harvey et al. (2022).

Experiment: yeast display, Sf9 membrane polyspecificity reagent, FACS + sequencing; frameworks hold sequencing errors
How it was run: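 Nanobodies from a synthetic yeast display library (Saccharomyces cerevisiae BJ5465), induced 36–48 hours with galactose, were stained 1 hour at 4 °C with 10% biotinylated, detergent-solubilized Sf9 membrane reagent, enriched on streptavidin microbeads, then FACS-sorted. Anti-HA (expression) and streptavidin (reagent binding) fluorescence set low and high (top ~1%) gates. Polyreactivity labels come from the gate of origin. Genes were colony-PCR amplified, MiSeq 2 × 250 sequenced and filtered by CDR length.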

Sequence | polyreactivity (PSR sort gate)
QVQLVESGGGLVQAGGSLSLSCDASGSIFYYYAMGWYRQAPGKEREMVASITSSGGTTSYADSVKGRFTISRDNAKNTVYLQMNSLKPEDTAVYYCNAQVYRYRICYDFWGEGTQVTVSS | low polyreactivity
QVQLVESGGGLVQAGGSLRLSCAASGFTFGYYGMGWYRQAPGKERELVAAISWSGGSTYYADSVKGRFTISRDNAKNTVYLQMNSLKPEDTAVDYCNADYAGFYQRRYIEDDYWGQGTQVTVSS | low polyreactivity
QVQLVESGGGLVQAGGSLRLSCAASGSIFGDNAMGWYRQAPGKERELVATISSSDASTYYADSVKGRFTISRDNAKNTVYLQMNSLKPEDTSVYYCAAARSGGYDYWGQGTQVTVSS | low polyreactivity
QVQLVESGGGLVQAGGSLRLICAASGSTFTRYAMGWYRQAPGKERELVAAITSSGSRTYYADSVKGRFTISRDNAQNTVYLQMNSLKPEDTAVYYFAALGDTRYVGMDHWGQGTQVTVSS | high polyreactivity
QVQLVESGGGLVQAGGSLRLSCAASGSTFQYYAMGWYRQAPGKERELVDAISPSVDTTFYADSVKGRFTISRDNAKNTVYLQMNSLKPEDTAVYFCAKRYVDPLGSGTLGSWGQGTQVTVSS | low polyreactivity
QVQLVESRGCLVQAGGSLRLSCAASGRIFYYYDMGWYRQAPGKERELVAAITYSDSSTYADSVKRRFTISRDNAKNTVYLQMNSLKPEDTAVYYCAADYVYPGVRLEMDYWGQGTQVTVSS | low polyreactivity
QVQLVESGVGLVQAAGSLRLSCAASGSTFSSYAMGWYRQAPGKERELVAVISSRGSRTYYADSVKGRFTNSRDNAKNSVYLLMNSLKPEDTAVYYCAARAVKQYGNSYESWGQGTQVTVSS | high polyreactivity
QGQLVESGGGLVQAGGSLRLSCAASGITFPGYAMGWSRQAPGKERELVAVIRKSGTSTYYADSVKGRFTISRDNEKNTVYLQMNSLKPEDTAVYYCADGGPSTVDVYWGQGTQVTVSS | low polyreactivity
QVQLVESGGGLVQAGGSLRLSCAASGRTFFSYAMGWYRQAPGKERELVAAISRRGSSTYYADSVKGRFTISRDNAKNTVYLQMNSLKPEDTAVYYCAADVVRGSRYNRYGYWGQGTQVTVSS | high polyreactivity
QVQLVESGGGFVQAGGSLRLSCAASGRIFTRYAMGWYRQAPGKERELVASISWSGDGTYYADSVKGRFTISRDNAKNTVYLQMNSLKPDDTAVYYCAARYGTVVPGQVRWYGYGYWGQGTQVTVSS | high polyreactivity
QVQLVESAGGLVQAGGSLRLSCAPSGRIFPVNSMGSYRQAPGKERELVATMSSGDITNYADSVKGRFTISRDNATITVYLQMNCLKPEDNAVYYCARDSKRLARYYYWGQGTQVTVSS | low polyreactivity
QVQLVESGGGLVQAGGSLRLSCAASGRILYYYAMGWYRQAPGKERELVAAINSSGGSTYYADSVKGRFTISRDNAKNTVYLQMNSLKPEDTAVYYCAALRGIVLWYPPSYFRYDYWGQGTQVTVSS | high polyreactivity
QVQLVESGGGLVQAGGSLRLSCAASGRIFTQYAMGWYRQAPGKERELVAAISYGGGTTHYADSVKGRFTISRDNAKNTVYLQMNSLKPEDTAVYYCAADGGRQVYTQLYDYWGQGTQVTVSS | low polyreactivity
QVQLVESGGGLVKAGGSLRLSCAASGNIFTSNAMGWYRQAPGKERELVAAITSGGSTYYADSVKGRFTISRDNAKNTVYLQMNSLKPEDTAVYYCATLPRPHLRPYYYWGQGTQVTVSS | high polyreactivity
QVQLVESGGGLVQAGGSLRLSCAASGRTYVRNAMGWYRQAPGKERELVAGITRSGGSTYYADSVKGRFTISRDNAKNTVYLQMNSLKPEDTAVYYCAKRYDVYVGTVRPYDYWGQGTQVTVSS | low polyreactivity
QVQLVESGGGLVQAGGSLRLSCAASGFTFRVNAMGWYRQAPGKERELVAAISSGGSTNYADSVKGRFTISRDNAKNTVYLQMNSLNPEDNAVYYCAKRFKYIYYWGQGTQVTVSS | high polyreactivity
QVQLVESGGGLVQAGGSLRLSSDDSGFTFVSNAMGWYRQAPGKEMELVAVISSGGSTTYADSVKGRFTISRDNAKNTVYLQMNSLKPEDTAVYYCATTNYQDSYEGGDYWGQGTQVTVSS | low polyreactivity
QVQLVESGGGLVQAGGSLRLSSAASGLTFINYDMGWYRQAPAKERELVAAISQIGTSTYYADSVKRRFTISRDNAKNTVYLQMNSLKPEDTAVYYCAAEFPTVYIPWSEMDYWGQGTQVTVSS | high polyreactivity
QVQLVESVGGLVQAGGSLRLSCAASGSTFPFYAMGWYRQAPGKERELVAAITSGGSTYADSVKGRFTISRDNAKNTVYLQMNSLKPEDTAVYYCAASWPRWWRFGYWGQGTQVTVSS | low polyreactivity
QVQLEESGGGLVQAGGSLRLSGAASGRTSDGYAMGWYRQAPGKERELVAGITEGGGDTYYADSVKGRFTMSRDTAKNTVYLQMNSLKPEDPALYYCNAVEGSRLPYDYGGQGTQVTVSS | low polyreactivity
QVQLVESGGGIVQAGGSLRLSCAASGSTFVIYTMGWYRPAPGKERELVAAISWSGGITRYADSVKGRFTISRDNAKNTVYLQMNSLKPEDSAVYYCNASQWPSRFDYWGQGTQVTVSS | low polyreactivity

Sequence | polyreactivity (PSR sort gate)
QVQLVESGGGLVQAGGSLRFSCGGWGSISEVYAMGWYRPAPGKERELVAAITSGASTNYADSVNGRFTISRDNAKNTVYLQMNSLKPEDTAVYYCAADSDSQWGMDYWGQGTQVTVSS | low polyreactivity
QVQLVESGGGLVQAGGSLRLSCAASGFIFPYYAMGWYRQAPGKEREFVAAITFSATRTYYADSVKGRFTISRDNAKNTVYLQMNSLKPEDTAVYYCNARGGVYGSYFEFNYWGQGTQVTVSS | low polyreactivity
QVQLVESGVVLVEAGGSLRLSCAASGRILSVYAMGWYRQAPRKERELVAAIRRGVGSTYYADSVKGRFTISRDNAKNTVYLQMNSLKPEDTADYYCAPYSYHNRIRYDSWGQGTQVTVSS | high polyreactivity
QVQLVETGGGLVQAGGSLRLSCAASGSTFWYYGMGWYRQAPGKERELVAAISRRGGSTYYADSVKGRFTFSRDNAKNTVYLQMNSLKPEDTAVYYCAADRLIGDGENYYWGQGTQVTVSS | high polyreactivity
QVQIVESGGGLVQAGGSLRLSCAASGFTFALYAMGWYRQEPGKEREWVAANTRSGRTKYADSVKGRFTISRDNAKNTVYLQMNSLKPEDTAVYYCAADFRYYVTTRFNYWGQGTQVTVSS | high polyreactivity
QVQLVESVGGLVLAGGSLRLSCAASGFTFPRYVMGSYRPAPGKAREFVAAITFSGGSTYYADSVKGRFTIARDNAKNTVYLQMNSLKPEDTAVYYCAAGASLWRLGLKRGYWGQGTQVTVSS | low polyreactivity
QVQRVESGGGLVQAGGSLRLSCAASGSIFGVYTRGWYRQAPGKESELVAAITSAGSTYADSVKGRFTISRDNAKNTVYLQMNSLKPEDTAVYYCAAGFHKRVTPEILYDYWGQGTQVTVSS | low polyreactivity
QVQRVESGGGLVQAGGSLRLSCAASGLILVPNTMGWYRQAPGKVRELVAAISYSGGGTYYADAVKGRFTISRDNAKNTVYLQMNSLKPEETAVYDCAAYVKRESAPYGYWGQGTQVTVSS | low polyreactivity
QVQLVESRGGLVQVGGSLRLSCAASGRTFGRYAMGWYRQAPGNERELVAAINSVARTNYADSVKGRFTISRDNAKNTVYLQMNSLKPEDSAVYYCAARRRGSVGVGYAYPYNYWGQGTQVTVSS | high polyreactivity
QVQLVESGGGLVQAGGSLRLSCAASGRIFRGYAMGWYRQAPGKERELVAAITSRGGSTYADSVKGRFTISRDNAKNTVYLQMNSLKPEDTAVYYCNAGYRAYSSKLVFRGYPRYDYWGQGTQVTVSS | low polyreactivity
QVQLVESGGGLVQAGGSLRLSCAASGLIFYNYAMGWYRQAPGKERELVAAITSGGSTYYADSVKGGFTISRDNAKNTVYLQMNSLKPEDTAVYYWAADLTYTVPFDYWGQGTQVTVSS | high polyreactivity
QVQLLESGGGLVQAGGSLRLSCAASGFTFAWYAMGWYRQAPGKERELVAAISSRGSRTRYADSVKGRFTISRDNAKNTVYLQLNSLKPEDTAFYYCAKGSGARVVQVDRSGDYWGQGTQVTVSS | high polyreactivity
QVQLVESGGGLVQAGGSLRLSCAASGSTFGPNAMGWYRQAPGKERELVAAIRSNGGRTYYADSVKGRFTISRDNAKITVYLQMNSLKPEDSAVYYCADPHYPYDTPYGYWGQGTQVTVSS | low polyreactivity
QVQLVESGGGLVQAGGSLRLSCAASGRIFPHNAMGWYRQAPGNERELVAAISSHGGSTYYAVSVKGRFTISRDNAKNTVYLQMNSLKPEDTAVYYCAKYRYFAGDGDYWGQGTQVTVSS | low polyreactivity
QVQLVESGGGLVQAGGSLRLSCAASGRIFGGNAMGWYRQAPGKECELVAAISKGGGSTNYADSVKGRFTISRDNAKNTVYLQMNSLKPEDTAVYYCAAVVSAHADDVDYWGQGTQVTVSS | high polyreactivity
QVQLVESGGGLVQAGGSLRLSCAASGFTFRRYVMGWYRQAPGKERELVAAISQSGGSTYYADSVKGRFTISRDNAMNTVYLQMNSLKPEDTAVYYCAAAKVPYGWAQSDYWGQGTQVTVSS | high polyreactivity
QVQLVESGGGLVQAGGSLRLSCAASGFTSRANAMGWYRQAPWKESELVAVITAGGGSTSYADSVKGRFTISRDNAKNTVYLQMNSLKPEDTAVYYCASTWYGGPYKSYYYWGQGTQVTVSS | low polyreactivity
QVQLVQSVGGLVQAGGSLRLSCAATGRIFFSYAMGWYRQAPGKERELVAAISWDGGSTYYADSVKGRFTISRDNAKNTDYLQMTSLKPEDTAVSYCNADTHFPPSSSSYSPSLLDYWGQGTQVTVSS | low polyreactivity
QVQLVESGGGLVQAGGSLRLSCAASGSIFAGYAMGWYRQAPGKERELVAAISKSAGSTYYADSVKGRFTISRDNAKNTVYLQMNSLKPEDTAVYYCAARTFNTYPRYYYWGQGTQVTVSS | high polyreactivity
QVQLVESGGGLVQAGGSLRLSCAASGSTFGYYTMGWYREAPGKERELVAAISWSGGSTYYADSVKGRFTISRDNAKNTVYLQMNSLKPEDTAVYYCAALGYTYKYYSYYWGQGTQVTVSS | high polyreactivity
